From US20230045284A1

Biological target: Total cellular Ras (all isoforms KRas, HRas and NRas, endogenous, in human cell lines)
Assay: cell-based or functional assay

Q: How did the dose needed for depletion of RAS in HCT-116 spheroids relative to RRSP-DTB turn out when “RRSP*-DTB (catalytically inactive RRSP H4030A fused to DTB) (from UniProt P00588 186-535) (enzyme)” was run?
A: 10 fold

Q: How did the concentration giving partial RAS inactivation, western blot, HCT-116 cells turn out when “RRSP-CPD-DTa-DTB (RRSP fused to the MARTX cysteine protease domain and detoxified diphtheria toxin) (from UniProt P00588 33-567) (enzyme)” was run?
A: 100 pM

Q: What does the source list for “RRSP-DTB (RRSP fused via a (G4S)2 linker to diphtheria toxin residues 186-535, DTT-DTR) (from UniProt P00588 186-535) (enzyme)”?
A: IC50 of cell viability after 72 hours, HCT-116 cells: 1.5 pM; IC50 of cell viability at 72 h, MDA-MB-436 cells: 5 pM; IC50 of cell viability, MDA-MB-231 cells, 72 hours: 12 pM; IC50 of viability of HCT-116 spheroids after 7 days: 85 pM; concentration giving complete cleavage of RAS after 1 h, western blot, MDA-MB-436 cells: 10 nM
